± gives the standard deviation.

This data set in a line: protein stability index of a GFP-peptide fusion (GPS, HEK-293T) (PSI 1-6); higher = more stable. The conditions noted are these: c terminus: a fixed tail appended.
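Also: 24-mer peptide tiles fused after GFP, lentivirally expressed, FACS-sorted into six equal bins by GFP/DsRed ratio, decoded by Illumina sequencing, PSI is the read-weighted mean bin number.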

YKRSMDPGYPKMIAHDFPGIGHKV [MMP1] had a protein stability index (treatment: DMSO) of 2.55 ± 0.21 and a protein stability index (treatment: MLN4924 1 uM, 8 h) of 2.77 ± 0.094.

YLNHVRAASPQDLAGGYTSSLACH [MNAT1]: the protein stability index (treatment: DMSO) is 2.85 ± 0.39 and the protein stability index (treatment: MLN4924 1 uM, 8 h) came out at 2.95 ± 0.34.

For YLPQCSYFKCVQKDIQPYMRRMVA [CCND2], the protein stability index runs as follows: (treatment: DMSO) 2.11 ± 0.28; (treatment: MLN4924 1 uM, 8 h) 2.01 ± 0.33.

For the sequence YNVSPLSWNVAVKFLMARKFDVLR [PTPN9], the protein stability index is, setting by setting: (treatment: DMSO) 3.02 ± 0.62; (treatment: MLN4924 1 uM, 8 h) 2.46 ± 0.88.

In the case of YPCVLATEGFTSGRHYWEVEVGDK [TRIM39], the protein stability index reads like this: (treatment: DMSO) 2.59 ± 0.62; (treatment: MLN4924 1 uM, 8 h) 3.27 ± 0.68.

As to YPHFSHRPSTLQAASTPQAEEDWT [OAS1], the protein stability index runs as follows: (treatment: DMSO) 4.52 ± 0.27; (treatment: MLN4924 1 uM, 8 h) 4.76 ± 0.23.

As for YPSVILRDPLQTDTLQNDYFAIKQ [ETS1], the protein stability index was found to be 3.1 ± 0.41 (treatment: DMSO) and 3.3 ± 0.21 (treatment: MLN4924 1 uM, 8 h).

For YQAGKPDALTKLEQGEPLWTLEDE [ZNF649], the protein stability index was found to be 4.57 ± 0.17 (treatment: DMSO) and 4.6 ± 0.18 (treatment: MLN4924 1 uM, 8 h).

With YQTEQSLRLLVESDINSIRRILDE [KRT34], the protein stability index (treatment: DMSO) came to 2.85 ± 0.18 and the protein stability index (treatment: MLN4924 1 uM, 8 h) worked out at 2.97 ± 0.42.

Take YSDKNAKLTKESYPVVVAESMYGD [TENT5D]: the protein stability index is, setting by setting: (treatment: DMSO) 4.39 ± 0.054; (treatment: MLN4924 1 uM, 8 h) 4.43 ± 0.22.

With YSFYMLTCIDMDWKVLTWLRYTLW [HACD3], the protein stability index by setting is: (treatment: DMSO) 2.63 ± 0.85; (treatment: MLN4924 1 uM, 8 h) 2.65 ± 0.36.

For YSKFHGLEMCVDARTFGNEARFIR [KMT2E], the protein stability index runs as follows: (treatment: DMSO) 2.21 ± 0.17; (treatment: MLN4924 1 uM, 8 h) 2.25 ± 0.22.

YSPSQYALQYAGDGSVLLIPRTMA [NFE2L1]: the protein stability index is, setting by setting: (treatment: DMSO) 2.11 ± 0.22; (treatment: MLN4924 1 uM, 8 h) 2.26 ± 0.22.

Regarding YTEQELKPLTLEALGHLGNDDSAD [DLC1], the protein stability index runs as follows: (treatment: DMSO) 5.43 ± 0.12; (treatment: MLN4924 1 uM, 8 h) 5.43 ± 0.16.

On to YTPDLPRADVDHAIEKAFQLWSNV [MMP1], for which the protein stability index runs as follows: (treatment: DMSO) 2.6 ± 0.73; (treatment: MLN4924 1 uM, 8 h) 2.86 ± 0.77.

YVPSSESFIIYLKNIVIADFVMSL [P2RY14] gave a protein stability index (treatment: DMSO) of 2.89 ± 0.96 and a protein stability index (treatment: MLN4924 1 uM, 8 h) of 2.74 ± 0.78.

Take YVYKAASEGKVLTLAALLLNRSES [FEM1B]: the protein stability index reads like this: (treatment: DMSO) 2.78 ± 0.69; (treatment: MLN4924 1 uM, 8 h) 2.62 ± 0.56.

The record behind these values is the supplement of paper PMC10567573.
